# Data from US20240002497A1.
# Residue numbers refer to the chain shown, from its start. Names and notes keep the numbering of the source.
# B1: F010301555 (bispecific antibody, part only; not given: Anti-albumin building block, part only)
# chain, part: DVQLVESGGGLVQPGGSLRLSCAASGPVFNINSMAWYRRAPGKQRELVAYSTPGWDWNYADSVKGRFTISRDNAKRVYLQMNSLTPEDTAVYYCRWLLQPSIYDISRTYWGQGTLVTVSSGGGGSGGGS
# B2: F010300702 (bispecific antibody, V domains shown, not shown: small tags and cut ends)
# VH: EVQLVESGGGLVQPGGSLRLSCAASGSIFNINSMAWYRRAPGKQRELVASSTNGGSTNYADSVKGRFTISRDNAKRVYLQMNSLTPEDTAVYYCRALLQPSIYDISRTYWGQGTLVTVSS
# B3: F0103464B09 T100I library variant (VHH, name in Kabat numbering)
# VHH: EVQLVESGGGLVQPGGSLRLSCATTSRAFIRDVFTGWYRRVPGKERELVARIYNGGNTNYADFAKGRFSISRDNAKKMVTLRMSNLKPEDTGVYYCLFSGTINIGREYRSGDYWGQGTLVTVSS
# B4: F0103464B09 T100Y library variant (VHH, name in Kabat numbering)
# VHH: B3 VHH with I104Y
# B5: F0103464B09 T100K library variant (VHH, name in Kabat numbering)
# VHH: B3 VHH with I104K
# B6: F0103464B09 T100M library variant (VHH, name in Kabat numbering)
# VHH: B3 VHH with I104M
# B7: F0103464B09 T100R library variant (VHH, name in Kabat numbering)
# VHH: B3 VHH with I104R
# B8: F0103464B09 T100L library variant (VHH, name in Kabat numbering)
# VHH: B3 VHH with I104L
# B9: F0103464B09 T100Q library variant (VHH, name in Kabat numbering)
# VHH: B3 VHH with I104Q
# Columns and labels:
# [1] = molecular target: huNav1.7α + β1 (human) (UniProt Q15858); experiment: cell-based or functional assay
# [2] = molecular target: rhNav1.7α + β1-β2-β3 (rhesus monkey); experiment: cell-based or functional assay
# [3] = molecular target: huNav1.7α + β1-β2-β3 (human) (UniProt Q15858); experiment: competition FACS vs EC25 of 275B05(N93R), CHO FlpIn
# [4] = molecular target: rhNav1.7α + β1-β2-β3 (rhesus monkey); experiment: as above
# [5] = molecular target: huNav1.7α + β1-β2-β3 (human) (UniProt Q15858); experiment: competition FACS IC50 with 50 µM human SA against without
# [6] = molecular target: rhNav1.7α + β1-β2-β3 (rhesus monkey); experiment: as above
# [7] = molecular target: huNav1.7α + β1-β2-β3 (human) (UniProt Q15858); experiment: competition FACS vs EC25 of 275B05(N93R), CHO FlpIn, + 50 µM human SA
# [8] = molecular target: rhNav1.7α + β1-β2-β3 (rhesus monkey); experiment: as above
# [9] = molecular target: huNav1.5-β1-β2-β3 (human) (UniProt Q14524); experiment: binding FACS, HEK Flp-In
# [10] = molecular target: huNav157chim14-β1-β2-β3 (human); experiment: binding FACS, HEK Flp-In
# [11] = molecular target: huNav1.5-β1-β2-β3 (human) (UniProt Q14524); experiment: FACS, CHO Flp-In, competitor 1 µM IRR00092
# [12] = molecular target: huNav1.7α + β1-β2-β3 (human) (UniProt Q15858); experiment: FACS, CHO Flp-In, competitor 1 µM IRR00092
# [13] = molecular target: rhNav1.7α + β1-β2-β3 (rhesus monkey); experiment: FACS, CHO Flp-In, competitor 1 µM IRR00092
# [14] = molecular target: huNav1.5-β1-β2-β3 (human) (UniProt Q14524); experiment: FACS, CHO Flp-In, competitor 1 µM F010300703
# [15] = molecular target: rhNav1.7α + β1-β2-β3 (rhesus monkey); experiment: FACS, CHO Flp-In, competitor 1 µM F010300703
# [16] = molecular target: huNav1.5-β1-β2-β3 (human) (UniProt Q14524); experiment: binding FACS, CHO Flp-In, periplasmic extract
# [17] = molecular target: huNav1.7α + β1-β2-β3 (human) (UniProt Q15858); experiment: binding FACS, CHO Flp-In, periplasmic extract
# [18] = molecular target: rhNav1.7α + β1-β2-β3 (rhesus Nav1.7α co-expressed with Navβ1, Navβ2 and Navβ3) (rhesus monkey); experiment: FACS, periplasmic extract, CHO Flp-In cells; SD MFI 13
# [19] = molecular target: muNav1.7α (murine Nav1.7α) (murine) (UniProt Q62205); experiment: FACS, periplasmic extract, HEK Jmp-In cells; SD MFI 24
# [20] = molecular target: rhNav1.7α + β1-β2-β3 (rhesus Nav1.7α co-expressed with Navβ1, Navβ2 and Navβ3) (rhesus monkey); experiment: FACS, periplasmic extract, CHO Flp-In cells; SD MFI 16
# [21] = molecular target: rhNav1.7α + β1-β2-β3 (rhesus Nav1.7α co-expressed with Navβ1, Navβ2 and Navβ3) (rhesus monkey); experiment: FACS, periplasmic extract, CHO Flp-In cells; SD MFI 15
# [22] = molecular target: rhNav1.7α + β1-β2-β3 (rhesus Nav1.7α co-expressed with Navβ1, Navβ2 and Navβ3) (rhesus monkey); experiment: FACS, periplasmic extract, CHO Flp-In cells; SD MFI 34
# [23] = molecular target: rhNav1.7α + β1-β2-β3 (rhesus Nav1.7α co-expressed with Navβ1, Navβ2 and Navβ3) (rhesus monkey); experiment: FACS, periplasmic extract, CHO Flp-In cells; SD MFI 49
# [24] = molecular target: rhNav1.7α + β1-β2-β3 (rhesus Nav1.7α co-expressed with Navβ1, Navβ2 and Navβ3) (rhesus monkey); experiment: FACS, periplasmic extract, CHO Flp-In cells; SD MFI 18
# [25] = molecular target: muNav1.7α (murine Nav1.7α) (murine) (UniProt Q62205); experiment: FACS, periplasmic extract, HEK Jmp-In cells; SD MFI 175
# [26] = molecular target: rhNav1.7α + β1-β2-β3 (rhesus Nav1.7α co-expressed with Navβ1, Navβ2 and Navβ3) (rhesus monkey); experiment: FACS, periplasmic extract, CHO Flp-In cells; SD MFI 53
binder,measurement,setting,value
B1,Human SA ratio of QPatch IC50,[1],7
same,"QPatch electrophysiology IC50 [M], HEK cells",[1],4.7e-08 M
same,"QPatch electrophysiology IC50 [M], HEK cells, + 10 µM human SA",[1],3.4e-07 M
same,Human SA ratio of QPatch IC50,[2],7
same,"QPatch electrophysiology IC50 [M], HEK cells",[2],3.5e-08 M
same,"QPatch electrophysiology IC50 [M], HEK cells, + 10 µM human SA",[2],2.6e-07 M
same,IC50,[3],140 nM
same,IC50,[4],92 nM
same,Human SA ratio,[5],8
same,Human SA ratio,[6],10
same,IC50,[7],1200 nM
same,IC50,[8],880 nM
B2,MFI,[9],946 MFI
same,MFI,[10],15400 MFI
same,MFI,[11],684 MFI
same,MFI,[12],4120 MFI
same,MFI,[13],5170 MFI
same,MFI,[14],653 MFI
same,MFI,[15],721 MFI
same,MFI,[16],662 MFI
same,MFI,[17],1570 MFI
B3,Mean MFI,[18],541 MFI
same,Mean MFI,[19],1310 MFI
B4,Mean MFI,[20],526 MFI
B5,Mean MFI,[21],583 MFI
B6,Mean MFI,[22],585 MFI
B7,Mean MFI,[23],626 MFI
B8,Mean MFI,[24],531 MFI
same,Mean MFI,[25],1250 MFI
B9,Mean MFI,[26],650 MFI
